From publication PMC2373884

How the values were obtained:
[1] = molecular target: cyclooxygenase-2 (COX-2), endogenous in human neutrophils (human (endogenous in neutrophils)) (UniProt P35354)
[2] = molecular target: cyclooxygenase-2 (COX-2), endogenous in human neutrophils (human (endogenous in neutrophils)) (UniProt P35354); remark: listed apart in the source

UniProt P35354, sequence (P35354 18-604): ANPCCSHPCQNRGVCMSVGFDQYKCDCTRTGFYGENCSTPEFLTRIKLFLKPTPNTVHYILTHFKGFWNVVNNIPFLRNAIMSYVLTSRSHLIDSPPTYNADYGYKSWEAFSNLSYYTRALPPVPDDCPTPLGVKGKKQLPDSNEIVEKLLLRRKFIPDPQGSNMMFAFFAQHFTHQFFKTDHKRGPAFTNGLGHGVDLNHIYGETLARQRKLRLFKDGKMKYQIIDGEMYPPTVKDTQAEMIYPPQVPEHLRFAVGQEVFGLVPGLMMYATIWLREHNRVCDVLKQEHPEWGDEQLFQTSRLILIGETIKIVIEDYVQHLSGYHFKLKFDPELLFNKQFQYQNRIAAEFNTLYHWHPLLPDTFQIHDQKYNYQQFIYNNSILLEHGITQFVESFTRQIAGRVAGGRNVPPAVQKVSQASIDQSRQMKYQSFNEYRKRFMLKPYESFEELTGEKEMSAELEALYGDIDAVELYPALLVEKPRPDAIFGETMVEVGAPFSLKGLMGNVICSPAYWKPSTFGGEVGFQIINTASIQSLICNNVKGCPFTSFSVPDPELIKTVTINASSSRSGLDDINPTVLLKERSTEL

Work on “human recombinant nucleobindin (hrNuc), full length (from UniProt Q02818 27-461) (natural protein)” yielded a PGE2 production (ELISA) from arachidonic acid (10 µM) by lysates of COX-2-expressing neutrophils with increasing quantities of hrNuc [1] of 5 fold and a PGE2 production (ELISA) from arachidonic acid (10 µM) by purified human recombinant COX-2 (1 U/sample, Cayman) with increasing amounts of hrNuc (fold over basal levels) [2] of 4.
